Data reported in patent publication US20240067944A1 (published 2024).

Experiments:
[1] = biological target: T1, human plasma-derived FX (Haematologic Technologies Inc, USA) (human, UniProt P00742 41-179; P00742 183-488); assay: cell-based or functional assay
[2] = biological target: T1, human plasma-derived FX (Haematologic …); assay: SPR, FX captured on immobilised anti-GLA-FX antibody, steady state analysis, 25 C
Procedure: Briefly, an anti-GLA-FX, prepared recombinantly as described above, was immobilised on a CM4 sensor chip or a Xantec HLC200M using standard amine coupling chemistry at pH 5. 10 nM FX (Haematologic Technologies, USA) was injected at a flow rate of 10 μL/min for 30 seconds. Subsequently 1000, 100, 10, 1, 0.1 and 0 nM of VHH polypeptide compound, according to Table 9, below were injected at a flow rate of 50 μL/min for 200 seconds to allow for binding to FX followed by a flow of 10 minutes with a running buffer (10 mM HEPES, 150 mM NaCl, 5 mM CaCl₂), 0.05% (v/v) Surfactant P20, 1 mg/mL bovine serum albumin, pH 7.4) injection allowing for dissociation from FX. The running buffer was also used for dilution of anti-FX VHH polypeptide compounds. Regeneration of the chip was achieved using a regeneration buffer consisting of 50 mM EDTA in running buffer, 30 seconds contact time, and a 30 μL/min flow rate. The binding data were collected at 25° C. and were analysed according to a 1:1 model using BiaEvaluation 4.1 supplied by the manufacturer (Biacore AB, Uppsala or Bruker Analyser).
(§1) Therefore, the reported KD values are determined based on steady state analysis.

[3] = biological target: T2, Benefix (Pfizer Inc, USA), FIX (human, UniProt P00740 47-461); assay: SPR, FIX (Benefix) captured on immobilised anti-GLA-FIX antibody, steady state analysis, 25 C
T2 construct: Bought product; also called FIX (Benefix®)
Procedure: Briefly, anti-GLA-FIX, prepared recombinantly as described above, was immobilised on a CM4 sensor chip or a Xantec HLC200M using standard amine coupling chemistry at pH 5. FIX (10 nM) was injected at a flow rate of 10 μL/min for 1 minute. Subsequently 1000, 100, 10, 1, 0.1 and 0 nM of VHH polypeptide compound were injected at a flow rate of 30 μL/min for 4 minutes to allow for binding to the FIX (Benefix®) followed by a flow of 5 minutes running buffer (10 mM HEPES, 150 mM NaCl, 5 mM CaCl₂), 0.05% (v/v) Surfactant P20, 1 mg/mL bovine serum albumin, pH 7.4) injection allowing for dissociation from FIX. The running buffer was also used for dilution of anti-FIX VHH polypeptide compounds. Regeneration of the chip was achieved using a regeneration buffer consisting of 50 mM EDTA in running buffer, 30 seconds contact time, and a 30 μL/min flow rate. The binding data were collected at 25° C. and were analysed according to a 1:1 model using BiaEvaluation 4.1 supplied by the manufacturer (Biacore AB, Uppsala).
as §1

T2 sequence (P00740 47-461 T194A limits assumed): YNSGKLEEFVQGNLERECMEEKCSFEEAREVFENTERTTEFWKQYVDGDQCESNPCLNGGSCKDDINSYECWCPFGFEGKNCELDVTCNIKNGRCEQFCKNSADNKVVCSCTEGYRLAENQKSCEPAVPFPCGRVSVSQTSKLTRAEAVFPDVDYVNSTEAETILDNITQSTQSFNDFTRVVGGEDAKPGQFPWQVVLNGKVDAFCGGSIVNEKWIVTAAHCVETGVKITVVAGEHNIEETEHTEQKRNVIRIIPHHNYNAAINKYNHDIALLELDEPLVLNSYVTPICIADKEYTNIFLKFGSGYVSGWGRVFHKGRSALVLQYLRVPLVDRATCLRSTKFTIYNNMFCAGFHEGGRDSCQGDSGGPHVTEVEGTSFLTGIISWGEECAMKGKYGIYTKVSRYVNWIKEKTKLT
T1 sequence (P00742 41-179, chain 1 of 2): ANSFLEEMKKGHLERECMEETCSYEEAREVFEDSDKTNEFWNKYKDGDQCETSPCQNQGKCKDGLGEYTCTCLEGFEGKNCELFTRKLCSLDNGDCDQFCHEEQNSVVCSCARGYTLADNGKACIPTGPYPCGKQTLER
T1 sequence (P00742 183-488, chain 2 of 2): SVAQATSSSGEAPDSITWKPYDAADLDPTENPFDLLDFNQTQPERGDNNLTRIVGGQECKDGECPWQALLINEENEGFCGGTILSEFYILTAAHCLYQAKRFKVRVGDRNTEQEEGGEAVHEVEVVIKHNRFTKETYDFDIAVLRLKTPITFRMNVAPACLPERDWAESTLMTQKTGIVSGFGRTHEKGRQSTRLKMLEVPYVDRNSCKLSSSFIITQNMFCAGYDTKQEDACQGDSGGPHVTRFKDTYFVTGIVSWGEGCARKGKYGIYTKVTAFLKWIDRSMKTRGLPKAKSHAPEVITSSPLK

| Binder | KM (nM) of FX activation by 0.1 nM FIXa on phospholipid vesicles with 5 nM compound [1] | kcat/KM (1/(min * nM)) of FX activation by 0.1 nM FIXa with 5 nM compound [1] | Kd [2] | Kd [3] |
| --- | --- | --- | --- | --- |
| Cmpd #21 (anti-FX/anti-FIX(a) VHH polypeptide derivative) (bispecific antibody, C16 diacid protractor (P2) via linker LP1 on Cys4 and Cys6 in C-term extension (SEQ ID NO: 9)) DVQLVESGGGVVQPGGSLQLSCAASGGTKSRYAMGWFRQAPGQEREFVAAISRRGGSTNYADSVKGRFTISRDNSKNTVYLDMDDLRPEDTALYYCAADDSVGDGYLDYWGQGTLVTVSSGQAPGQEVQLVESGGGVVQPGGSLQLSCAASGRTFNIYTMSWFRQDPGQEREFVAGLRWTDSSTEYADSVKGRFTISRDNSKNTVYLQMDSLRPEDTALYYCAADRSFLFAQALGATKNYEYWGQGTLVTVSSGQACPC | 3.9 nM | 0.27 min⁻¹ nM⁻¹ | – | – |
| Cmpd #16 (anti-FX/anti-FIX(a) VHH polypeptide derivative) (bispecific antibody, C16 diacid protractor (P2) via linker LP1 on Cys4 and Cys6 in C-term extension (SEQ ID NO: 9)) DVQLVESGGGVVQPGGSLQLSCAASGGTKRRLAMGWFRQAPGQEREWVAAISRRGGSTNYADSVKGRFTISRDNSKNTVYLDMDDLRPEDTALYYCAADDSVGDGYLDYWGQGTLVTVSSGQAPGQEVQLVESGGGVVQPGGSLRLSCAASGRYFNIYTMSWFRQDPGQEREFVAGLRWTDSSTEYADSVKGRFTISRDNSKNTVYLQMNSLRPEDTALYYCAADRSFLFAQALGATKNYEYWGQGTLVTVSSGQACPC | 7.1 nM | 0.14 min⁻¹ nM⁻¹ | – | – |
| Cmpd #14 (anti-FX/anti-FIX(a) VHH polypeptide derivative) (bispecific antibody, C16 diacid protractor (P2) via linker LP1 on Cys4 and Cys6 in C-term extension (SEQ ID NO: 9), Single chain of two VHH: anti-FX (N-terminal) and anti-FIX(a) (C-terminal); also called VHH1.14-L1-2-VHH2.14-E) DVQLVESGGGVVQPGGSLQLSCAASGGTKRRLAMGWFRQAPGQEREFVAAISRRGGSTNYADSVKGRFTISRDNSKNTVYLQMDSLRPEDTALYYCAADDSVGDGYLDYWGQGTLVTVSSGQAPGQEVQLVESGGGVVQPGGSLQLSCAASGRTFNIYTMSWFRQAPGQEREFVAGLRWTDSSTEYADSVKGRFTISRDNSKNTVYLQMDSLRPEDTALYYCAADRSFLFAQALGATKNYEYWGQGTLVTVSSGQACPC | – | – | 42 nM | 1.6 nM |
| Cmpd #7 (anti-FX/anti-FIX(a) VHH polypeptide derivative) (bispecific antibody, C16 diacid protractor (P2) via linker LP1 on Cys4 and Cys6 in C-term extension (SEQ ID NO: 9), Single chain of two VHH: anti-FX (N-terminal) and anti-FIX(a) (C-terminal)) DVQLVESGGGVVQPGGSLQLSCAASGGTKSRYAMGWFRQAPGQEREFVAAISRRGGSTNYADSVKGRFTISRDNSKNTVYLQMDSLRPEDTALYYCAADDSVGDGYLDYWGQGTLVTVSSGQAPGQEVQLVESGGGVVQPGGSLRLSCAASGRTFNIYTMSWFRQAPGQEREFVAGLRWTDSSTEYADSVKGRFTISRDNSKNTVYLQMNSLRPEDTALYYCAADRSFLFAQALGATKNYEYWGQGTLVTVSSGQACPC | – | – | 82 nM | 2.3 nM |
| Cmpd #8 (anti-FX/anti-FIX(a) VHH polypeptide derivative) (bispecific antibody, C16 diacid protractor (P2) via linker LP1 on Cys4 and Cys6 in C-term extension (SEQ ID NO: 9), Single chain of two VHH: anti-FX (N-terminal) and anti-FIX(a) (C-terminal)) DVQLVESGGGVVQPGGSLQLSCAASGGTKSRYAMGWFRQAPGQEREFVAAISRRGGSTNYADSVKGRFTISRDNSKNTVYLQMDSLRPEDTALYYCAADDSVGDGYLDYWGQGTLVTVSSGQAPGQEVQLVESGGGVVQPGGSLQLSCAASGRTFNIYTMSWFRQAPGQEREFVAGLRWTDSSTEYADSVKGRFTISRDNSKNTVYLQMDSLRPEDTALYYCAADRSFLFAQALGATKNYEYWGQGTLVTVSSGQACPC | 4.8 nM | 0.27 min⁻¹ nM⁻¹ | 96 nM | 2.5 nM |
| Cmpd #9 (anti-FX/anti-FIX(a) VHH polypeptide derivative) (bispecific antibody, C16 diacid protractor (P2) via linker LP1 on Cys4 and Cys6 in C-term extension (SEQ ID NO: 9), Single chain of two VHH: anti-FX (N-terminal) and anti-FIX(a) (C-terminal)) DVQLVESGGGVVQPGGSLQLSCAASGGTKSRYAMGWFRQAPGQEREFVAAISRRGGSTNYADSVKGRFTISRDNSKNTVYLDMDDLRPEDTALYYCAADDSVGDGYLDYWGQGTLVTVSSGQAPGQEVQLVESGGGVVQPGGSLRLSCAASGRTFNIYTMSWFRQDPGQEREFVAGLRWTDSSTEYADSVKGRFTISRDNSKNTVYLQMNSLRPEDTALYYCAADRSFLFAQALGATKNYEYWGQGTLVTVSSGQACPC | – | – | 70 nM | 1.1 nM |
| Cmpd #10 (anti-FX/anti-FIX(a) VHH polypeptide derivative) (bispecific antibody, C16 diacid protractor (P2) via linker LP1 on Cys4 and Cys6 in C-term extension (SEQ ID NO: 9), Single chain of two VHH: anti-FX (N-terminal) and anti-FIX(a) (C-terminal)) DVQLVESGGGVVQPGGSLQLSCAASGGTKRRLAMGWFRQAPGQEREWVAAISRRGGSTNYADSVKGRFTISRDNSKNTVYLQMDSLRPEDTALYYCAADDSVGDGYLDYWGQGTLVTVSSGQAPGQEVQLVESGGGVVQPGGSLRLSCAASGRTFNIYTMSWFRQAPGQEREFVAGLRWTDSSTEYADSVKGRFTISRDNSKNTVYLQMNSLRPEDTALYYCAADRSFLFAQALGATKNYEYWGQGTLVTVSSGQACPC | – | – | 190 nM | 5.5 nM |
| Cmpd #11 (anti-FX/anti-FIX(a) VHH polypeptide derivative) (bispecific antibody, C16 diacid protractor (P2) via linker LP1 on Cys4 and Cys6 in C-term extension (SEQ ID NO: 9), Single chain of two VHH: anti-FX (N-terminal) and anti-FIX(a) (C-terminal)) DVQLVESGGGVVQPGGSLQLSCAASGGTKRRLAMGWFRQAPGQEREFVAAISRRGGSTNYADSVKGRFTISRDNSKNTVYLDMDDLRPEDTALYYCAADDSVGDGYLDYWGQGTLVTVSSGQAPGQEVQLVESGGGVVQPGGSLRLSCAASGRTFNIYTMSWFRQDPGQEREFVAGLRWTDSSTEYADSVKGRFTISRDNSKNTVYLQMNSLRPEDTALYYCAADRSFLFAQALGATKNYEYWGQGTLVTVSSGQACPC | – | – | 42 nM | 6.4 nM |
| Cmpd #12 (anti-FX/anti-FIX(a) VHH polypeptide derivative) (bispecific antibody, C16 diacid protractor (P2) via linker LP1 on Cys4 and Cys6 in C-term extension (SEQ ID NO: 9), Single chain of two VHH: anti-FX (N-terminal) and anti-FIX(a) (C-terminal); also called VHH1.12-L1-2-VHH2.12-E) DVQLVESGGGVVQPGGSLQLSCAASGGTKRRLAMGWFRQAPGQEREFVAAISRRGGSTNYADSVKGRFTISRDNSKNTVYLDMDDLRPEDTALYYCAADDSVGDGYLDYWGQGTLVTVSSGQAPGQEVQLVESGGGVVQPGGSLQLSCAASGRTFNIYTMSWFRQDPGQEREFVAGLRWTDSSTEYADSVKGRFTISRDNSKNTVYLQMDSLRPEDTALYYCAADRSFLFAQALGATKNYEYWGQGTLVTVSSGQACPC | – | – | 26 nM | 7.8 nM |
| Cmpd #13 (anti-FX/anti-FIX(a) VHH polypeptide derivative) (bispecific antibody, C16 diacid protractor (P2) via linker LP1 on Cys4 and Cys6 in C-term extension (SEQ ID NO: 9), Single chain of two VHH: anti-FX (N-terminal) and anti-FIX(a) (C-terminal); also called VHH1.13-L1-2-VHH2.13-E) DVQLVESGGGVVQPGGSLQLSCAASGGTKRRLAMGWFRQAPGQEREWVAAISRRGGSTNYADSVKGRFTISRDNSKNTVYLDMDDLRPEDTALYYCAADDSVGDGYLDYWGQGTLVTVSSGQAPGQEVQLVESGGGVVQPGGSLQLSCAASGRTFNIYTMSWFRQDPGQEREFVAGLRWTDSSTEYADSVKGRFTISRDNSKNTVYLQMDSLRPEDTALYYCAADRSFLFAQALGATKNYEYWGQGTLVTVSSGQACPC | 6.2 nM | 0.18 min⁻¹ nM⁻¹ | 300 nM | 2 nM |
| Cmpd #17 (anti-FX/anti-FIX(a) VHH polypeptide derivative) (bispecific antibody, C16 diacid protractor (P2) via linker LP1 on Cys4 and Cys6 in C-term extension (SEQ ID NO: 9)) DVQLVESGGGVVQPGGSLQLSCAASGGTKSRYAMGWFRQAPGQEREWVAAISRRGGSTNYADSVKGRFTISRDNSKNTVYLDMDDLRPEDTALYYCAADDSVGDGYLDYWGQGTLVTVSSGQAPGQEVQLVESGGGVVQPGGSLQLSCAASGRTFNIYTMSWFRQDPGQEREFVAGLRWTDSSTEYADSVKGRFTISRDNSKNTVYLQMDSLRPEDTALYYCAADRSFLFAQALGATKNYEYWGQGTLVTVSSGQACPC | 9 nM | 0.15 min⁻¹ nM⁻¹ | – | – |
| Cmpd #19 (anti-FX/anti-FIX(a) VHH polypeptide derivative) (bispecific antibody, C16 diacid protractor (P2) via linker LP1 on Cys4 and Cys6 in C-term extension (SEQ ID NO :9)) DVQLVESGGGVVQPGGSLQLSCAASGGTKSRYAMGWFRQAPGQEREWVAAISRRGGSTNYADSVKGRFTISRDNSKNTVYLQMDSLRPEDTALYYCAADDSVGDGYLDYWGQGTLVTVSSGQAPGQEVQLVESGGGVVQPGGSLQLSCAASGRTFNIYTMSWFRQAPGQEREFVAGLRWTDSSTEYADSVKGRFTISRDNSKNTVYLQMDSLRPEDTALYYCAADRSFLFAQALGATKNYEYWGQGTLVTVSSGQACPC | 8.2 nM | 0.3 min⁻¹ nM⁻¹ | – | – |
| Cmpd #4 (anti-FX/anti-FIX(a) VHH polypeptide derivative) (bispecific antibody, C18 diacid protractor (P3) via linker LP1 on Cys6 in C-term extension (SEQ ID NO: 7), Single chain of two VHH: anti-FX (N-terminal) and anti-FIX(a) (C-terminal)) DVQLVESGGGVVQPGGSLRLSCAASGRTHSRYAMGWFRQAPGKEREFVAAISRRGGSTNYADSVKGRFTISRDNSKNTVYLQMNSLRPEDTALYYCAADDSSGDGYLDYWGQGTLVTVSSGGGGSGGGSEVQLVESGGGVVQPGGSLRLSCAASGRTFNIYTMSWFRQAPGKEREFVAGLRWTDSSTEYADSVKGRFTISRDNSKNTVYLQMNSLRPEDTALYYCAADRSFLFAQALGATKNYEYWGQGTLVTVSSGGGGSCHHHHHH | – | – | 229 nM | 11.7 nM |
| Cmpd #5 (anti-FX/anti-FIX(a) VHH polypeptide derivative) (bispecific antibody, C18 diacid protractor (P3) via linker LP1 on Cys6 in C-term extension (SEQ ID NO: 7), Single chain of two VHH: anti-FX (N-terminal) and anti-FIX(a) (C-terminal)) DVQLVESGGGVVQPGGSLQLSCAASGRTHSRYAMGWFRQAPGQEREFVAAISRRGGSTNYADSVKGRFTISRDNSKNTVYLQMDSLRPEDTALYYCAADDSSGDGYLDYWGQGTLVTVSSGGGGSGGGSEVQLVESGGGVVQPGGSLQLSCAASGRTFNIYTMSWFRQAPGQEREFVAGLRWTDSSTEYADSVKGRFTISRDNSKNTVYLQMDSLRPEDTALYYCAADRSFLFAQALGATKNYEYWGQGTLVTVSSGGGGSCHHHHHH | – | – | 199 nM | 2.7 nM |
